Assay [1] addresses carcinoembryonic antigen (CEA) (UniProt P06731). Briefly: SEC-HPLC; the conjugate without CEA eluted at 10.312 min and 10.331 min in serum.
The target of assay [2] is somatostatin receptors on AR42J cells (rat). Briefly: apparent IC50; competition with ^111In(DTPA-octreotide) on AR42J cells, 3 h at RT.
In assay [3] the target is gastrin-releasing peptide receptor on PC-3 cells (UniProt P30550). Briefly: competition with ^125I-BBN for binding to PC-3 cells, inhibitor 250 to 2 nM.
Chain of UniProt P30550 (P30550 whole entry): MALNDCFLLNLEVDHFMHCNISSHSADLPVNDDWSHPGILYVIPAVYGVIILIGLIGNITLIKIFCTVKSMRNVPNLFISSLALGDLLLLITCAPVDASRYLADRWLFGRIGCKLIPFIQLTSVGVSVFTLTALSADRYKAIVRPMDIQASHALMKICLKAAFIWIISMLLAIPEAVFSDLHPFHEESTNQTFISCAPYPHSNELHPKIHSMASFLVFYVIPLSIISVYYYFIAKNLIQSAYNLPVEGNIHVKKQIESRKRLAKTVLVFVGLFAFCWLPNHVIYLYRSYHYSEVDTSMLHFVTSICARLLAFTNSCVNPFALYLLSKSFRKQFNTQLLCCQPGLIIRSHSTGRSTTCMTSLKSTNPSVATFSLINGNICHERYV
For assay [4] the target is unchanged. The assay can be described thus: competition with ^125I-Bombesin for binding to 3x10^6 PC-3 cells, inhibitor 56 to 0.44 nM.

pIC50: −log10 of the molar value.

Chain of UniProt P06731 (P06731 35-685 limits assumed): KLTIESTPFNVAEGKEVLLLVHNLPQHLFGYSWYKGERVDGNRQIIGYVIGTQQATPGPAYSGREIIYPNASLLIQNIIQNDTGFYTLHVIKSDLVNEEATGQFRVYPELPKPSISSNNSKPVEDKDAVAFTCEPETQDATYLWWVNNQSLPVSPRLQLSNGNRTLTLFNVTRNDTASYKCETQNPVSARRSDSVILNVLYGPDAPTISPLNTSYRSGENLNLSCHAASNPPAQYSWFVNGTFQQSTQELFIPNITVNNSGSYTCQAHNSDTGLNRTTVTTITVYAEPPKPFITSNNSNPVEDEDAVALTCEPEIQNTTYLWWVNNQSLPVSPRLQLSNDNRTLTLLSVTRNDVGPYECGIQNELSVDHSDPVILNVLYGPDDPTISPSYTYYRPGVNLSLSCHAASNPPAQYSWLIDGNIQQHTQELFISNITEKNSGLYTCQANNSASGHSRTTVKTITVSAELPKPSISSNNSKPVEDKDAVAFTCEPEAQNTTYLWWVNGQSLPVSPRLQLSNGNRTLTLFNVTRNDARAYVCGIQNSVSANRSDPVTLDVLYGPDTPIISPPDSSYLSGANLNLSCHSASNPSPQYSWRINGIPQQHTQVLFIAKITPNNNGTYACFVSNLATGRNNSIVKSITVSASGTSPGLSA

For Al^18F(NODA-MPAES)-hMN-14 Fab', the SEC-HPLC retention time of the major product after adding CEA in assay [1] was determined as 7.21 min.
As a reminder, the pIC50 is the IC50 on a negative log10 scale, so that one unit is a factor of ten. In the case of “Al^19F(IMP466) (Al^19F complex of NOTA-D-Phe-Cys-Phe-D-Trp-Lys-Thr-Cys-Throl) (peptide)”, the pIC50 in assay [2] is 8.44.
“IMP468 (NOTA-NH-(CH2)7CO-Gln-Trp-Val-Trp-Ala-Val-Gly-His-Leu-Met-NH2) (peptide)”: the figures for the pIC50 in assay [3] and in assay [4] were 7.44 and 7.67, respectively.
As for “^69Ga(IMP466) (^69Ga complex of NOTA-D-Phe-Cys-Phe-D-Trp-Lys-Thr-Cys-Throl) (peptide)”, the pIC50 in assay [2] is 7.89.
Take ^115In(DTPA-octreotide) (peptide): in assay [2], the pIC50 is 8.20.
In turn, “commercially available BBN peptide (bombesin positive control)” gave a pIC50 in assay [3] of 7.61.

(Values after EP2651411B1.)
